The target in series [1] is T1, SSB (UniProt P0AGE0 2-178). The series is described as follows: competition (smFRET strand transfer); from dT70-SSB, 300 mM NaCl; 6.1±0.1e4 M-1 s-1; 10 mM Tris-HCl pH 7.5, 100 or 300 mM NaCl, 10% glycerol, 10 mM Trolox, 0.5% glucose, glucose oxidase/catalase, ~23 C. The following applies: protein: recombinant; chain copies: 4.
The target of series [2] is T2, RPA (yeast) (Saccharomyces cerevisiae, UniProt P22336;P26754;P26755 1-621;1-273;1-122). The series is described as follows: competition (smFRET strand transfer); from dT70-RPA, 100 mM NaCl; 9.1±0.4e4 M-1 s-1; 10 mM Tris-HCl pH 7.5, 100 or 300 mM NaCl, 10% glycerol, 10 mM Trolox, 0.5% glucose, glucose oxidase/catalase, ~23 C. The following applies: protein: recombinant; copies: 1;1;1.
T2 sequence (P22336 whole entry, chain 1 of 3): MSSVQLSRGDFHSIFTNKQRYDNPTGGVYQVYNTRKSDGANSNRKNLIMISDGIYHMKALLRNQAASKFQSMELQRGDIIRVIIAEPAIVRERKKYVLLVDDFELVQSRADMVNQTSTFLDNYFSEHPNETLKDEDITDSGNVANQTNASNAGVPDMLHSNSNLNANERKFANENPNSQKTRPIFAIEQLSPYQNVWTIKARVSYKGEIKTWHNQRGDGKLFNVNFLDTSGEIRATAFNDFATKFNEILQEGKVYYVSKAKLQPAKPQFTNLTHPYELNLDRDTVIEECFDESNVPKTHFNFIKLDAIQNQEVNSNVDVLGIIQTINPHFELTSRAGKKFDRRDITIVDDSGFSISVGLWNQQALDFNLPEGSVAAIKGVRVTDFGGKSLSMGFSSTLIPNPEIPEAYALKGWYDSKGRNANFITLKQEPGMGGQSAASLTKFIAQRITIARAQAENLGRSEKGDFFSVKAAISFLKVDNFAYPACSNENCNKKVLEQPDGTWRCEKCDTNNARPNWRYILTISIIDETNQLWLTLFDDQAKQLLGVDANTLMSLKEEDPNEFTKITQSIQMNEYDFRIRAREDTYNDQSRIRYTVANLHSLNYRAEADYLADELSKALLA
T2 sequence (P26754 whole entry, chain 2 of 3): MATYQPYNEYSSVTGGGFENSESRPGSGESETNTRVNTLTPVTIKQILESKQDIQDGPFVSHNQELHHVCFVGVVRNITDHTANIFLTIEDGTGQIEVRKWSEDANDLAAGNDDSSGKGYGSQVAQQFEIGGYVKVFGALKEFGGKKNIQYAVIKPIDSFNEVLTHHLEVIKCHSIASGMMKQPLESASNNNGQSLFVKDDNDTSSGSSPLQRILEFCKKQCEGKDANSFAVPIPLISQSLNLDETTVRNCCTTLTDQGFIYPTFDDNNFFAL
T2 sequence (P26755 whole entry, chain 3 of 3): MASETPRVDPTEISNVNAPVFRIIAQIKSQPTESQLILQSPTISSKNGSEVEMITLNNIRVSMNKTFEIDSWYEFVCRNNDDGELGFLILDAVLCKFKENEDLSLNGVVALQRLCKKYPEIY

Series [3] concerns the target T2, RPA (yeast). The series can be described thus: competition (smFRET strand transfer); from U50-RPA, 100 mM NaCl; 4.3±0.4e5 M-1 s-1; 10 mM Tris-HCl pH 7.5, 100 or 300 mM NaCl, 10% glycerol, 10 mM Trolox, 0.5% glucose, glucose oxidase/catalase, ~23 C. To be noted: protein: recombinant; copies: 1;1;1.
The target of series [4] is T1, SSB. The series is described as follows: competition (smFRET strand transfer); from U50-SSB, 100 mM NaCl; 2.1±0.2e5 M-1 s-1; 10 mM Tris-HCl pH 7.5, 100 or 300 mM NaCl, 10% glycerol, 10 mM Trolox, 0.5% glucose, glucose oxidase/catalase, ~23 C. The following applies: protein: recombinant; chain copies: 4.
The target of series [5] is T2, RPA (yeast). The series can be described thus: competition (smFRET strand transfer); 100 nM competitor from dT40-RPA; rate jumps between dT20 and dT30; 10 mM Tris-HCl pH 7.5, 100 or 300 mM NaCl, 10% glycerol, 10 mM Trolox, 0.5% glucose, glucose oxidase/catalase, ~23 C. To be noted: protein: recombinant; copies: 1;1;1.
The target in series [6] is T1, SSB. The series is described as follows: competition (smFRET strand transfer); from dT40-SSB, 100 mM NaCl; 9.8±0.2e4 M-1 s-1; 10 mM Tris-HCl pH 7.5, 100 or 300 mM NaCl, 10% glycerol, 10 mM Trolox, 0.5% glucose, glucose oxidase/catalase, ~23 C. To be noted: protein: recombinant; chain copies: 4.
The target in a further series is hRPA (Homo sapiens, UniProt P27694;P15927;P35244 1-616;1-270;1-121). The series can be described thus: competition (smFRET strand transfer); from dT40-hRPA, 100 mM NaCl; 8.3±0.6e4 M-1 s-1; 10 mM Tris-HCl pH 7.5, 100 or 300 mM NaCl, 10% glycerol, 10 mM Trolox, 0.5% glucose, glucose oxidase/catalase, ~23 C. To be noted: protein: recombinant; copies: 1;1;1.
hRPA, sequence (P27694 whole entry, chain 1 of 3): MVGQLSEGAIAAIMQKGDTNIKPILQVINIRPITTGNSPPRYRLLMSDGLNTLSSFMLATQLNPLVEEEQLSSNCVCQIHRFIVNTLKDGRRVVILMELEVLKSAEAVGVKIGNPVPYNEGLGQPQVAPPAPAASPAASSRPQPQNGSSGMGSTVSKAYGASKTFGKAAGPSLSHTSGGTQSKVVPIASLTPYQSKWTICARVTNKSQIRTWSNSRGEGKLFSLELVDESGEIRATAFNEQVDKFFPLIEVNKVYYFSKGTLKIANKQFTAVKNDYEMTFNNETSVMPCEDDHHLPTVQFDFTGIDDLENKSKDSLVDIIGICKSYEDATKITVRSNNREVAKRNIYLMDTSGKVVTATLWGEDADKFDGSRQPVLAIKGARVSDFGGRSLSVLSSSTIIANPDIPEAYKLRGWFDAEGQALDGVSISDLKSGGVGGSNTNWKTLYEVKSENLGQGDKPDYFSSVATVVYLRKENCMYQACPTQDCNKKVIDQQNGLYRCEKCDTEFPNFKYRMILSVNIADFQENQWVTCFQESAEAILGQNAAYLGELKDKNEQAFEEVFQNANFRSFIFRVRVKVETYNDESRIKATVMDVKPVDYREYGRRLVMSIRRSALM
hRPA, sequence (P15927 whole entry, chain 2 of 3): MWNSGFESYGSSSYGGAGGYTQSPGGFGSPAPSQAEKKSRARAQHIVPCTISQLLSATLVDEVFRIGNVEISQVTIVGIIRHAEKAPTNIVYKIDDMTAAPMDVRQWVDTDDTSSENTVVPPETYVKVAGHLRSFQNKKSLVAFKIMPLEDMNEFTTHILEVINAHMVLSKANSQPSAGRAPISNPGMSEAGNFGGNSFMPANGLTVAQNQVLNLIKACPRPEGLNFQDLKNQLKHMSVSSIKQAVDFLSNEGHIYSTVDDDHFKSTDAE
hRPA, sequence (P35244 whole entry, chain 3 of 3): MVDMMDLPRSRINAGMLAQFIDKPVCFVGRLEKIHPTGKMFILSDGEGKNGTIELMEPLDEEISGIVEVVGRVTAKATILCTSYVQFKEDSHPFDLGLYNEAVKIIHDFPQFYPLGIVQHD
The target of series [7] is T2, RPA (yeast). The series can be described thus: competition (smFRET strand transfer); from dT40-RPA, 100 mM NaCl; 8.6±0.3e4 M-1 s-1; 10 mM Tris-HCl pH 7.5, 100 or 300 mM NaCl, 10% glycerol, 10 mM Trolox, 0.5% glucose, glucose oxidase/catalase, ~23 C. The following applies: protein: recombinant; copies: 1;1;1.
For series [8], the target named is T2, RPA (yeast). The series can be described thus: single-molecule FRET; 3 nM, ternary intermediate with dT40-RPA, dwell ~0.27 s, 100 mM NaCl; 10 mM Tris-HCl pH 7.5, 100 or 300 mM NaCl, 10% glycerol, 10 mM Trolox, 0.5% glucose, glucose oxidase/catalase, ~23 C. The following applies: protein: recombinant; copies: 1;1;1; label: 3' Cy3.
The target in series [9] is T1, SSB. The series can be described thus: single-molecule FRET; 3 nM, ternary intermediate with dT40-SSB, dwell ~0.31 s, 100 mM NaCl; 10 mM Tris-HCl pH 7.5, 100 or 300 mM NaCl, 10% glycerol, 10 mM Trolox, 0.5% glucose, glucose oxidase/catalase, ~23 C. To be noted: protein: recombinant; chain copies: 4; label: 3' Cy3.

T1 sequence (P0AGE0 2-178): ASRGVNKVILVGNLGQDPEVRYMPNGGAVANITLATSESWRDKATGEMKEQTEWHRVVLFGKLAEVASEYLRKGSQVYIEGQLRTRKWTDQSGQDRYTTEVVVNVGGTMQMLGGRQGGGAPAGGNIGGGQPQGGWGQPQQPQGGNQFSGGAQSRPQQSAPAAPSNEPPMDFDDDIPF

B1: dT60 (ssDNA)
DNA: TTTTTTTTTTTTTTTTTTTTTTTTTTTTTTTTTTTTTTTTTTTTTTTTTTTTTTTTTTTT
In the case of B1, the binding result with SSB [1] and in the series with RPA (yeast) [2] was “binds” each time.

B2: U50 (ssRNA)
RNA: UUUUUUUUUUUUUUUUUUUUUUUUUUUUUUUUUUUUUUUUUUUUUUUUUU
Take B2: the binding result in the series with RPA (yeast) [3] and with SSB [4] was “binds” in each case.

B3: dT30 (ssDNA)
DNA: TTTTTTTTTTTTTTTTTTTTTTTTTTTTTT
Regarding B3, the binding result in the series with RPA (yeast) [5] was “binds”.

B4: dT40 (ssDNA)
DNA: TTTTTTTTTTTTTTTTTTTTTTTTTTTTTTTTTTTTTTTT
On to B4, for which the binding result in the series with SSB [6], in the series with hRPA and with RPA (yeast) [7] was “binds” each time.

B5: dT40-Cy3 (ssDNA)
DNA: B4 DNA
On to B5, for which the binding result in the series with RPA (yeast) [8] and with SSB [9] was “binds” throughout.

Source of the values: publication PMC12214019, “Mechanistic insights into direct DNA and RNA strand transfer and dynamic protein exchange of SSB and RPA”.
